Measurements as given in EP3689907A1.
Changes are numbered by the printed parent chain. Values belong to the binder of their own block, whether it stands above or below them.

What was measured:
human IL-17A (human) [1] = molecular target: human IL-17A (human) (UniProt Q16552); experiment: cell-based or functional assay
human IL-17A (human) [2] = molecular target: human IL-17A (human) (UniProt Q16552); experiment: SPR (Biacore T200), direct setup: IL-17A amine-coupled to CM5 chip, scFv as analyte
human IL-17A (human) [3] = molecular target: human IL-17A (human) (UniProt Q16552); experiment: IL-17A/IL-17RA competitive ELISA: biotinylated hIL-17A preincubated with scFv, binding to coated hIL-17RA
human IL-17A (human) [4] = molecular target: human IL-17A (human) (UniProt Q16552); experiment: SPR (Biacore T200), capture setup: biotinylated human IL-17A captured with Biotin-CAPture kit, scFv as analyte
human IL-17A (human) [5] = molecular target: human IL-17A (human) (UniProt Q16552); experiment: IL-17A/IL-17RA competitive ELISA: biotinylated hIL-17A preincubated with scFv, binding to coated hIL-17RA; reference secukinumab

- Neutralization of IL17A in HT-29 assay, rel. IC50* (IC50, secukinumab/IC50, Test Sample) (human IL-17A (human) [1]): 196
- Potency in HT-29 assay, IC50 [ng/mL] (human IL-17A (human) [1]): 0.13 ng/mL
- Potency in HT-29 assay, rel. IC50* (IC50, secukinumab/IC50, Test Sample) (human IL-17A (human) [1]): 196
- Kd (human IL-17A (human) [2]): 0.0376 nM
- koff (human IL-17A (human) [2]): 4.07e-05 s⁻¹
- kon (human IL-17A (human) [2]): 1.08e+06 M⁻¹ s⁻¹
- IC50 (human IL-17A (human) [3]): 0.9 ng/mL
- Kd (human IL-17A (human) [4]): 0.367 nM
- koff (human IL-17A (human) [4]): 0.000142 s⁻¹
- kon (human IL-17A (human) [4]): 387000 M⁻¹ s⁻¹
- rel. IC50 (IC50, secukinumab/IC50, Test Sample) (human IL-17A (human) [5]): 40.9
B1: PRO592 (scFv)
scFv: DIQMTQSPSSLSASVGDRVTITCQASESIYRYLSWYQQKPGKAPKLLIYLASTLTSGVPSRFSGSGSGTDFTLTISSLQPEDFATYYCQSNFGTASTTYYNTFGGGTKLTVLGGGGGSGGGGSGGGGSGGGGSEVQLVESGGGLVQPGGSLTLSCAASGFSFSGFYYMCWVRQAPGKGLEWIGCIDTGDGTTYYASWAKGRFTISRDNSKNTVYLQMNSLRAEDTAVYYCARDAAYGGYAYPAHGMDLWGPGTLVTVSS

- Neutralization of IL17A in HT-29 assay, rel. IC50* (IC50, secukinumab/IC50, Test Sample) (human IL-17A (human) [1]): 191
- Potency in HT-29 assay, IC50 [ng/mL] (human IL-17A (human) [1]): 0.1 ng/mL
- Potency in HT-29 assay, rel. IC50* (IC50, secukinumab/IC50, Test Sample) (human IL-17A (human) [1]): 191
- Kd (human IL-17A (human) [2]): 0.0403 nM
- koff (human IL-17A (human) [2]): 4.55e-05 s⁻¹
- kon (human IL-17A (human) [2]): 1.13e+06 M⁻¹ s⁻¹
- IC50 (human IL-17A (human) [3]): 1.8 ng/mL
- Kd (human IL-17A (human) [4]): 0.119 nM
- koff (human IL-17A (human) [4]): 0.000144 s⁻¹
- kon (human IL-17A (human) [4]): 1.21e+06 M⁻¹ s⁻¹
- rel. IC50 (IC50, secukinumab/IC50, Test Sample) (human IL-17A (human) [5]): 22.9
B2: PRO571 (scFv)
scFv: B1 scFv with T152R, P251Q
